B1: Heavy metal-associated isoprenylated plant protein 26 (Arabidopsis thaliana (Mouse-ear cress)), Q9SZN7 (parent)
chain: MGVLDHVSEMFDCSHGHKIKKRKQLQTVEIKVKMDCEGCERKVRRSVEGMKGVSSVTLEPKAHKVTVVGYVDPNKVVARMSHRTGKKVELWPYVPYDVVAHPYAAGVYDKKAPSGYVRRVDDPGVSQLARASSTEVRYTTAFSDENPAACVVM
partner: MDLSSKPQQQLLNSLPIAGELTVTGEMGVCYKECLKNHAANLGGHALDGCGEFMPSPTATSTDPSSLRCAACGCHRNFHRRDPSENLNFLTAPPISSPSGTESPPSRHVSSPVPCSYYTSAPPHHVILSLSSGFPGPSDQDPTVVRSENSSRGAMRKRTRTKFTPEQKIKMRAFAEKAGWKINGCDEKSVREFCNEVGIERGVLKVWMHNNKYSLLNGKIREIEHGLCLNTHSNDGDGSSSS

Variants of: B1
Settings: with zhd11_arath ZHD11, Q9SEZ1

Row | Variant | effect of a mutation on the interaction
1 | C36G;C39G | disrupting interaction

Source: IntAct's records for PubMed 18974936
